Reference: IntAct's records for PubMed 23260139

Molecular target: vinc_mouse Vcl (UniProt Q64727)
Sequence (Q64727 whole entry): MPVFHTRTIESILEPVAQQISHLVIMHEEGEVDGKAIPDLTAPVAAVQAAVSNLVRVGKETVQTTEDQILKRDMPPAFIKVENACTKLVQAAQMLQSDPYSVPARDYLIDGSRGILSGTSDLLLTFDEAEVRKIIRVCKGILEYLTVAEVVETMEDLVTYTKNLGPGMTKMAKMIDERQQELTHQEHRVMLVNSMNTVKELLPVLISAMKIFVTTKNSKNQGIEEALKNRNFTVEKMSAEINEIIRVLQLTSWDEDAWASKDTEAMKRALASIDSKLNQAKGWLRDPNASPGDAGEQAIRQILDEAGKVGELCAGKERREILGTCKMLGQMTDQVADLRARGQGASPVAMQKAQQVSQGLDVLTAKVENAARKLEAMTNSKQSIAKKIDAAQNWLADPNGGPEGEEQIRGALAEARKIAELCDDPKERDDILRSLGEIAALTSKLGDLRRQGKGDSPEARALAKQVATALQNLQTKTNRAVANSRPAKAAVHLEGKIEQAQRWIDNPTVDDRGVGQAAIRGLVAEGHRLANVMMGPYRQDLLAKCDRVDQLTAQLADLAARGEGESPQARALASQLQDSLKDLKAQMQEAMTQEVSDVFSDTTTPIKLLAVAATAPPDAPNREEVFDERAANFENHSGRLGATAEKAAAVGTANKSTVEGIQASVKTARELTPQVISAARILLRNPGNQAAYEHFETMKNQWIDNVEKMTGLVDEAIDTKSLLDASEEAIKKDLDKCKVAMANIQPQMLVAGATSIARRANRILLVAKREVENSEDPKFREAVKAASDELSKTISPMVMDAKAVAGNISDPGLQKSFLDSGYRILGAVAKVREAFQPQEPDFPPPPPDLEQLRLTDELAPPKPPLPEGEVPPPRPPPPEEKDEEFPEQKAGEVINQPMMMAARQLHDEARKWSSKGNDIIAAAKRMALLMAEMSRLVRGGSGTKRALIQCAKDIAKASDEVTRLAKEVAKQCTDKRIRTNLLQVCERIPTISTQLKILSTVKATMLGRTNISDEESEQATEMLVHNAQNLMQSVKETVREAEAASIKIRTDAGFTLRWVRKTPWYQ

Paxillin (Gallus gallus (Chicken)), P49024 E151Q, sequence (P49024 whole entry E151Q): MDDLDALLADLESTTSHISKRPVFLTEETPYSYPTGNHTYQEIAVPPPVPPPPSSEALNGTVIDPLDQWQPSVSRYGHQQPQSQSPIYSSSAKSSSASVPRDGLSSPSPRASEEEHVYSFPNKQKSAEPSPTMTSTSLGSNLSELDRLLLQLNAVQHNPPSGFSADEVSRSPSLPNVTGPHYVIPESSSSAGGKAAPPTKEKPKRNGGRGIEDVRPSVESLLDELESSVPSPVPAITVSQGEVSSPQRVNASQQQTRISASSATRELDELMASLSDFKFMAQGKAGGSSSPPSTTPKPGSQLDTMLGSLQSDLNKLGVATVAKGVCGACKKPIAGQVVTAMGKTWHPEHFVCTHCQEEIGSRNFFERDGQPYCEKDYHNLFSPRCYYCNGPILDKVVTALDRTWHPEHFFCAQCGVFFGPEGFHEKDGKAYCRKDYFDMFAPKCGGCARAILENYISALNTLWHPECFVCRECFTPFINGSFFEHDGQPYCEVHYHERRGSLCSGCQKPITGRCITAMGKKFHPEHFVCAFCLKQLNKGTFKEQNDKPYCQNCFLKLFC

Substance: Paxillin (Gallus gallus (Chicken)), P49024 E151Q
- effect of a mutation on the interaction: decreasing interaction strength
